Here are results for 13 molecules from US20190127480A1 (Regeneron, published 2019).

Where a chain is given by its changes, count along the chain named.

T1: soluble heterodimeric hCD3ε/δ.mFc protein (human)
T1 construct: also called soluble human CD3; soluble heterodimeric CD3 protein
T1 chain 1: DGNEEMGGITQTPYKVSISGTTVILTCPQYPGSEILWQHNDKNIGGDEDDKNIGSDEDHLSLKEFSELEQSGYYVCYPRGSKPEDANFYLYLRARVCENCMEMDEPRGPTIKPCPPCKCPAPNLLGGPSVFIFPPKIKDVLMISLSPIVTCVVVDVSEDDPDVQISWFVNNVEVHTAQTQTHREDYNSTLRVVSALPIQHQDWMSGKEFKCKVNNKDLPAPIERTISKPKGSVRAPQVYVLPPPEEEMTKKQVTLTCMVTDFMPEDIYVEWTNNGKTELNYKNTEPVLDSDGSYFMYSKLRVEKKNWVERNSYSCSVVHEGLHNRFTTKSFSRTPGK
T1 chain 2: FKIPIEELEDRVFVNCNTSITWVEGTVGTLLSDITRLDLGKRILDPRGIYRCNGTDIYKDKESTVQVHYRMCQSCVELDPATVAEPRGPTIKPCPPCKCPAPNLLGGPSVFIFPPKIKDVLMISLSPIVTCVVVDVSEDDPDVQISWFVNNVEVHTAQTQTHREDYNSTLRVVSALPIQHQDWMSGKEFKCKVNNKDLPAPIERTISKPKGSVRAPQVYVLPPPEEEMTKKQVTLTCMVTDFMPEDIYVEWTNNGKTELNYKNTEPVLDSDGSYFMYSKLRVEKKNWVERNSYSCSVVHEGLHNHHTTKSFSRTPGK

B1: BSPSMA/CD3-1400 (bispecific antibody, IgG4, V domains shown)
VH 1: QVQLVESGGGVVQPGRSLRLSCAASGFTFSSYGMHWVRQAPGKGLEWVAVISYAGNNKYYADSVKGRFTVSRDNSKKTLYLQMNSLRSEDTAVYYCAKDSYYDFLTDPDVLDIWGQGTMVTVSS
VH 2: EVQLVESGGGLVQPGRSLRLSCAASGFTFDDYSMHWVRQAPGKGLEWVSGISWNSGSIGYADSVKGRFTISRDNAKNSLYLQMNSLRAEDTALYYCAKYGSGYGKFYHYGMDVWGQGTTVTVSS
VL: DIQMTQSPSSLSASVGDSVTITCRASQSINNYLNWYQQKPGKAPKLLIYTASSLLSGVPSRFSGSGSGTDFTLTISGLHPEDFATYFCQQSFSTPPITFGQGTRLDIK
notes: modified (chimeric) IgG4 Fc domain; also called PSMA-VH-11810 x CD3-VH-G14
B2: BSPSMA/CD3-800 (bispecific antibody, IgG4, V domains shown)
VH 1: B1 VH 1
VH 2: B1 VH 2 with M111L
VL: B1 VL
notes: modified (chimeric) IgG4 Fc domain; also called PSMA-VH-11810 x CD3-VH-G8
B3: BSPSMA/CD3-1000 (bispecific antibody, IgG4, V domains shown)
VH 1: B1 VH 1
VH 2: B1 VH 2 with I58K, H108Y, M111L
VL: B1 VL
notes: modified (chimeric) IgG4 Fc domain; also called PSMA-VH-11810 x CD3-VH-G10
B4: BSPSMA/CD3-1700 (bispecific antibody, IgG4, V domains shown)
VH 1: B1 VH 1
VH 2: B1 VH 2 with I58K, H108Y
VL: B1 VL
notes: modified (chimeric) IgG4 Fc domain; also called PSMA-VH-11810 x CD3-VH-G17
B5: BSPSMA/CD3-005 (bispecific antibody, IgG4, V domains shown)
VH 1: B1 VH 1
VH 2: B1 VH 2 with H108Y
VL: B1 VL
notes: modified (chimeric) IgG4 Fc domain; also called PSMA-VH-11810 x CD3-VH-G20
B6: BSPSMA/CD3-1100 (bispecific antibody, IgG4, V domains shown)
VH 1: B1 VH 1
VH 2: B1 VH 2 with I58K
VL: B1 VL
notes: modified (chimeric) IgG4 Fc domain; also called PSMA-VH-11810 x CD3-VH-G11
B7: BSPSMA/CD3-1300 (bispecific antibody, IgG4, V domains shown)
VH 1: B1 VH 1
VH 2: B1 VH 2 with H108Y, M111L
VL: B1 VL
notes: modified (chimeric) IgG4 Fc domain; also called PSMA-VH-11810 x CD3-VH-G13
B8: BSPSMA/CD3-900 (bispecific antibody, IgG4, V domains shown)
VH 1: B1 VH 1
VH 2: B1 VH 2 with I58K, Y99D, M111L
VL: B1 VL
notes: modified (chimeric) IgG4 Fc domain; also called PSMA-VH-11810 x CD3-VH-G9
B9: BSPSMA/CD3-003 (bispecific antibody, IgG4, V domains shown)
VH 1: B1 VH 1
VH 2: B1 VH 2 with I58K, M111L
VL: B1 VL
notes: modified (chimeric) IgG4 Fc domain; also called PSMA-VH-11810 x CD3-VH-G
B10: BSPSMA/CD3-200 (bispecific antibody, IgG4, V domains shown)
VH 1: B1 VH 1
VH 2: B1 VH 2 with S33A, Y99D, K105Y, H108Y
VL: B1 VL
notes: modified (chimeric) IgG4 Fc domain; also called PSMA-VH-11810 x CD3-VH-G2
B11: BSPSMA/CD3-400 (bispecific antibody, IgG4, V domains shown)
VH 1: B1 VH 1
VH 2: B1 VH 2 with S33A, Y99D, H108Y
VL: B1 VL
notes: modified (chimeric) IgG4 Fc domain; also called PSMA-VH-11810 x CD3-VH-G4
B12: BSPSMA/CD3-1800 (bispecific antibody, IgG4, V domains shown)
VH 1: B1 VH 1
VH 2: B1 VH 2 with Y99D, H108Y, M111L
VL: B1 VL
notes: modified (chimeric) IgG4 Fc domain; also called PSMA-VH-11810 x CD3-VH-G18
B13: BSPSMA/CD3-300 (bispecific antibody, IgG4, V domains shown)
VH 1: B1 VH 1
VH 2: B1 VH 2 with Y99D, K105Y, H108Y
VL: B1 VL
notes: modified (chimeric) IgG4 Fc domain; also called PSMA-VH-11810 x CD3-VH-G3

By Kd is commonly meant the free concentration of one partner at which half of the binding sites on the other are occupied at equilibrium, for simple one-to-one binding. A higher Kd goes with weaker binding. For orientation: koff means the first-order rate constant of dissociation. In general, kon refers to the rate constant with which the complex forms. Lower therefore signals slower complex formation. As a reminder, the EC50 is the midpoint of the concentration-response curve.

For one test, the target named is T1, soluble heterodimeric hCD3ε/δ.mFc …. In words: SPR MASS-1, 37 C, antigen-capture (hCD3ε/δ.mFc captured), antibody injected. The protocol: (§1) Measurements were conducted on a Sierra Sensors MASS-1 instrument.
(§2) In the antigen-capture format, the MASS-1 high-density amine sensor surface was derivatized with a goat anti-mouse IgG2a polyclonal antibody (Southern Biotech). Soluble heterodimeric CD3 protein was captured and the respective antibodies were injected over the captured antigen.
(§3) Kinetic association (kₐ) and dissociation (kd) rate constants were determined by processing and fitting the data to a 1:1 binding model using MASS-1 AnalyserR2 curve fitting software. Binding dissociation equilibrium constants (KD) and dissociative half-lives (t_{1/2}) were calculated from the kinetic rate constants as: KD (M)=kd/kₐ; and t_{1/2} (min)=(ln 2/(60*kd).
As for B1, the affinity, expressed as Kd, was 53.3 nM; the “T½” value stood at 3.5 min; the koff amounted to 0.00331 s⁻¹; the kon stood at 62100 M⁻¹ s⁻¹.
For B2, in that order: 19.4 nM, 10 min, 0.00115 s⁻¹ and 59500 M⁻¹ s⁻¹.
For B3, in that order: 185 nM, 1.8 min, 0.00637 s⁻¹ and 34400 M⁻¹ s⁻¹.
Turning to B4, the Kd was found to be 65.2 nM, the “T½” value was 3.8 min, the koff came out at 0.00307 s⁻¹ and the on-rate constant (kon) came out at 47000 M⁻¹ s⁻¹.
Consider B5, for which the Kd came to 334 nM, the “T½” value was 2 min, the off-rate constant (koff) came to 0.00577 s⁻¹ and the kon came out at 17300 M⁻¹ s⁻¹.
With B6, the Kd was determined as 11.1 nM, the “T½” value was 11.3 min, the koff was 0.00102 s⁻¹ and the kon stood at 92100 M⁻¹ s⁻¹.
As for B7, the Kd turned out to be 122 nM, the “T½” value was found to be 4.7 min, the koff came out at 0.00248 s⁻¹ and the kon worked out at 20300 M⁻¹ s⁻¹.
For B8, in that order: 113 nM, 2.3 min, 0.00495 s⁻¹ and 43800 M⁻¹ s⁻¹.

In the next test the target is T2, cynomolgus CD3 on cynomolgus T cells (cynomolgus, UniProt Q95LI5 22-198; Q95LI8 22-171).
T2 construct: whole, on cells; also called Cyno T-cells; monkey T-cells
T2 sequence (Q95LI5 22-198, form in doubt, chain 1 of 2): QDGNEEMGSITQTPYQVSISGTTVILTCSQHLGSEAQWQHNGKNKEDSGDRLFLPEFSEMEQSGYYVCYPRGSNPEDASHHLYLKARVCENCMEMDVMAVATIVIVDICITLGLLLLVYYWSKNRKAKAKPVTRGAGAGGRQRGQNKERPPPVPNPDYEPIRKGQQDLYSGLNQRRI
T2 sequence (Q95LI8 22-171, form in doubt, chain 2 of 2): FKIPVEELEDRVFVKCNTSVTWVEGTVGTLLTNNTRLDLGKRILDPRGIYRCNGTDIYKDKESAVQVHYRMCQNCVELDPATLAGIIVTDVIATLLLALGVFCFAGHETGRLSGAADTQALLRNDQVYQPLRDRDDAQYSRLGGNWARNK
Put plainly: FACS on cynomolgus T cells. The method, then: (§4) Briefly, 2×10⁵ cells/well of human CD3-expressing Jurkat, cynomolgus T, or human PSMA-specific expressing cells were incubated with a serial dilution of bispecific antibodies for 30 min at 4° C. After incubation, cells were washed and a goat F(ab′)₂ anti-human Fcγ PE labeled secondary (Jackson Immunolabs) was added to the cells for an additional 30 min. Next, cells were washed, re-suspended in cold PBS+1% BSA and analyzed via flow cytometry on a BD FACS Canto II.
(§5) For FACS analysis, cells were gated by forward scatter height vs. forward scatter area for single events selection, followed by side and forward scatters. The EC₅₀ for cell binding titration was determined using Prism software. Values were calculated using 4-parameter non-linear regression analysis.
As to B9, the midpoint of the response, the EC50, lay at 14.2 nM.
In turn, B1 came in with an EC50 of 170 nM.
Still for that read-out and setting: the figure for B2 is 19.6 nM; for B4 it is 3350 nM; for B5 it is 6140 nM.
The molecule B6 had an EC50 of 890 nM.
On the same count and under the same terms, the figure for B7 is 2170 nM.

Another test concerns the target T3, human CD3 on CD3-expressing cells (Jurkat, human T cells) (human, UniProt P07766 23-207; P04234 22-171).
T3 construct: On cells CD3 stands within the T cell receptor complex (also gamma and zeta chains); also called human CD3 expressing Jurkat cells
In words: FACS on Jurkat cells. The method, then: as §4, §5
Take B9: the EC50 was 16.5 nM. In other words, the double-digit nanomolar range.
Regarding B1, the EC50 stood at 31.9 nM.
For the molecule B10, the binding result is recorded as “no binding”.
Regarding B2, the concentration for a half-maximal effect (EC50) came to 19.3 nM.
Regarding B3, the EC50 was found to be 277 nM. This EC50 lies about 14-fold higher than the previous one.
As for B11, the binding result is listed as “no binding”.
B4 gave an EC50 of 200 nM.
For B12, the half-maximal effective concentration (EC50) was found to be 126 nM. This EC50 lies about 1.6-fold lower than the previous one.
As for B5, the EC50 was found to be 210 nM.
For B6, the EC50 was determined as 18.3 nM. Compared with the last molecule, the EC50 is about 11-fold lower.
Regarding B7, the EC50 was 102 nM. Against the preceding molecule, the EC50 is about 5.6-fold higher.
Still for that read-out and setting: next, B8: 274 nM.
For B13, the binding result was “no binding”.

The target in a further test is T4, human PSMA on PSMA-expressing cells (human, UniProt Q04609 1-750). In words: cell-based or functional assay.
T4 sequence (Q04609 whole entry): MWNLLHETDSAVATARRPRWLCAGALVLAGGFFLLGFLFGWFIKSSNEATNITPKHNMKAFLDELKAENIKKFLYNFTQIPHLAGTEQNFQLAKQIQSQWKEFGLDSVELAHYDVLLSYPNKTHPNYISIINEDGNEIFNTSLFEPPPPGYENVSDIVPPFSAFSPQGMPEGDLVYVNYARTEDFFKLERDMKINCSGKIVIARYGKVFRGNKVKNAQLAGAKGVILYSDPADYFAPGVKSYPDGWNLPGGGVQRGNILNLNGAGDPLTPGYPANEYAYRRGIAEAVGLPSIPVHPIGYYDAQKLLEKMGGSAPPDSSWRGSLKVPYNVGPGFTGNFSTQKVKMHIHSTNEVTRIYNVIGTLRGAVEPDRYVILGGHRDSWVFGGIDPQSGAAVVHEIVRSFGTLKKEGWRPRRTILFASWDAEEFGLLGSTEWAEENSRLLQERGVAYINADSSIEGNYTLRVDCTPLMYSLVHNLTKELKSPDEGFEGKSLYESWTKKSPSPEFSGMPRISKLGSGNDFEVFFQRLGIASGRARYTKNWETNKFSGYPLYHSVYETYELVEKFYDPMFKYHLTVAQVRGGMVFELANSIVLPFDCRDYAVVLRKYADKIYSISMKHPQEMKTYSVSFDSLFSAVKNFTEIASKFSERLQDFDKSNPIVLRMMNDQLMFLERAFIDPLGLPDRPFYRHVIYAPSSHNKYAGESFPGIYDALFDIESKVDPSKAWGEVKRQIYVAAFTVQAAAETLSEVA
Turning to B9, the “C4-2 Cell depletion EC50” value is 0.0103 nM and the “TrampC2.PSMA Cell depletion EC50” value turned out to be 0.00643 nM.
Regarding B2, the “TrampC2.PSMA Cell depletion EC50” value worked out at 0.00927 nM.
The same measure, in the same setting: next, B3: 0.00597 nM.
As for B4, the “22RV1 Cell depletion EC50” value was 0.00207 nM and the “C4-2 Cell depletion EC50” value turned out to be 0.00737 nM.
For B5, in that order: 0.00832 nM and 0.0139 nM.
As for B6, the “TrampC2.PSMA Cell depletion EC50” value was determined as 0.00386 nM.
Consider B7, for which the “C4-2 Cell depletion EC50” value is 0.00874 nM.
Consider B8, for which the “TrampC2.PSMA Cell depletion EC50” value turned out to be 0.0035 nM.

In another test the target is T3, human CD3 on CD3-expressing cells …. Put plainly: cell-based or functional assay.
Target sequence in this assay (P07766 23-207 limits assumed, chain 1 of 2): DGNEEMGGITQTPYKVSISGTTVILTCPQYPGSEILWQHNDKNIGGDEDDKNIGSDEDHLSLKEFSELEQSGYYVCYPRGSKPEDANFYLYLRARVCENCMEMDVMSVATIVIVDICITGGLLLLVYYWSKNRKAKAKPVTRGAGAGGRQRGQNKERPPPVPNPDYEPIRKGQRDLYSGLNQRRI
Target sequence in this assay (P04234 22-171 limits assumed, chain 2 of 2): as the sequence (Q95LI8 22-171, form in doubt, chain 2 of 2) above, with V5I, K15N, V20I, T32S, N33D, N34I, A64T, N74S, L83V, R141H counted along it
Turning to B9, the “T cell activation EC50” value turned out to be 0.00123 nM.
On the same count and under the same terms, next, B2: 0.00176 nM; B3: 0.00128 nM.
The same measure, in the same setting: next, B4: 0.00389 nM; B5: 0.00611 nM.
Still for that read-out and setting: the figure for B6 is 0.00111 nM; for B7 it is 0.00231 nM; for B8 it is 0.00112 nM.
B13: the “T cell activation EC50” value worked out at 0.0185 nM.

For a further test, the target named is T4, human PSMA on PSMA-expressing cells. In words: FACS on B16F10.9/PSMA cells. The protocol:
as §4, §5
B9 came in with an EC50 of 2.26 nM.
B1: a half-maximal effect (EC50) was put at 1.3 nM.
As to B10, the response was half-maximal at 1.88 nM (EC50).
The same measure, in the same setting: the figure for B2 is 1.31 nM; for B3 it is 1.19 nM.
B11 came in with an EC50 of 1.72 nM.
Turning to B4, the concentration giving a half-maximal response (EC50) was 1.34 nM.
With B12, the midpoint of the response, the EC50, lay at 2.16 nM.
Regarding B5, the EC50 is 2.09 nM.
Still for that read-out and setting: the figure for B6 is 1.03 nM; for B7 it is 1.25 nM; for B8 it is 1.43 nM.
Same read-out and setting: the figure for B13 is 1.9 nM.

The next test addresses T1, soluble heterodimeric hCD3ε/δ.mFc …. In words: SPR MASS-1, 37 C, antigen-capture format. The protocol: as §1, §2, §3
Consider B10, for which the binding result was “no binding”.
With B11, the binding result is “no binding”.
On the same count and under the same terms, next, B12: “no binding”; B13: “no binding”.
